Measurements from patent publication US20120283136A1, “COMPOSITIONS AND METHODS FOR THE RAPID BIOSYNTHESIS AND IN VIVO SCREENING OF BIOLOGICALLY RELEVANT PEPTIDES” (THE UNIVERSITY OF SOUTHERN CALIFORNIA, priority 2009, published 2012).
“Also recorded” adds a separate entry of the source. Where no end group is shown, it is not given here.

What was measured:
trypsin [1] = biological target: trypsin (Sus scrofa, UniProt P00761); assay: Competing trypsin-binding experiments (sequential extraction with limiting trypsin-sepharose); details: in vitro and in vivo cyclized libraries, trypsin-sepharose under competing conditions (about 20% of beads required for stoichiometric binding), MCoTI-I wt as internal reference
trypsin [2] = details: read-out: Ki (affinity for trypsin); cited from earlier work
LF protease = LF protease (Bacillus anthracis, UniProt P15917); type: biochemical, B. anthracis strain Sterne
[3] = Saether et al. (1995); cited from earlier work

Sequence of trypsin (Sus scrofa, UniProt P00761) (P00761 9-231): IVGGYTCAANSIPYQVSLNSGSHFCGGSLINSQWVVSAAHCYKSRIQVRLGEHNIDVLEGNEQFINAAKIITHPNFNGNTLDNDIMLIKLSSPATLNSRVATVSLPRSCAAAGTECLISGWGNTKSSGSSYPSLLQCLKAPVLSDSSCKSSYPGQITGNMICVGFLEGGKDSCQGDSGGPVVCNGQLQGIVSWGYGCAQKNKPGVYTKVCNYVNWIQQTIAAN

Substance: Q7G (CGSGSDGGVCPKILGRCRRDSDCPGACICRGNGY; not fully specified (bridges); ends and bridges not checked)
- relative affinity for trypsin versus MCoTI-I wt (elution profile) (trypsin [1]): lower affinity; also recorded: weaker affinity

Substance: MCoTI-II (cyclo(SGSDGGVCPKILKKCRRDSDCPGACICRGNGYCG); ends not checked; also: three disulfide bonds (cystine knot), pairing not given here; UniProt P82409 1-34, looked up)
- Ki (trypsin [2]): ~2 pM

Substance: H-RRKKVYPYPMEGTIA-NH2 [consensus LF substrate peptide made by Fmoc solid-phase synthesis]
- time for cleavage of the P1-P1′ peptide bond by LF (LF protease): less than 15 minutes

Substance: Kalata B1 (cyclo(GLPVCGETCVGGTCNTPGCTCSWPVCTRN); ends not checked; also: three disulfide bonds (cystine knot), pairing not given here; UniProt P56254 89-117, looked up) [first cyclotide to be discovered, from Oldenlandia affinis]
- oral bioavailability [3]: orally bioavailable
